# Test results published in patent publication US20030232760A1, “Conjugates useful in the treatment of prostate cancer” (priority 2001, published 2003).
# pEC50: −log10 of the molar value. Where a SMILES comes first, the peptide text is derived from it. Primed or numbered codes have the meaning given here. [ ]: non-standard residue; d: D form. The star is where a group is joined. ξ: configuration not given here. Doxorubicin(3'-N) = COc1cccc2c1C(=O)c1c(O)c3c(c(O)c1C2=O)C[C@@](O)(C(=O)CO)C[C@@H]3O[C@H]1C[C@H](N*)[C@H](O)[C@H](C)O1; PEG(2) = polyethylene glycol-containing substituent with two ethyleneoxy subunits; Hyp = O=C(O)[C@@H]1C[C@@H](O)CN1; ξtBuAla = CC(C)(C)CC(N)C(=O)O; Chg = N[C@H](C(=O)O)C1CCCCC1; ξHyp = O=C(O)C1CC(O)CN1
# Columns and labels:
# [1] = target: T1, enzymatically active free PSA (Homo sapiens, UniProt P07288); assay: Recognition of oligopeptide-doxorubicin conjugates by free PSA (HPLC cleavage assay); assay type: biochemical; conditions: for Time to 50% Substrate Cleavage by PSA: conjugate added to PSA at molar ratio 100 to 1, PSA digestion buffer
# T1 construct: required for 50% cleavage of the noted oligopeptides with enzymatically active free PSA
# Method: The conjugates prepared as described in Examples 3-5 were individually dissolved in PSA digestion buffer (12 mM tris(hydroxymethyl)-aminomethane pH8.0, 25 mM NaCl, 0.5 mm CaCl2) and the solution added to PSA at a molar ration of 100 to 1. Alternatively, the PSA digestion buffer utilized is 50 mM tris(hydroxymethyl)-aminomethane pH7.4, 140 mM NaCl. The reaction is quenched after various reaction times by the addition of trifluoroacetic acid (TFA) to a final 1% (volume/volume). Alternatively the reaction is quenched with 10 mm ZnCl2. The quenched reaction was analyzed by HPLC on a reversed-phase C18 column using an aqueous 0.1% TFA/acetonitrile gradient. […] If no salt is indicated for the conjugate, the free conjugate was tested. The oligopeptide-cytotoxic agent conjugates described in Examples 4 and 5 were assessed for the amount of time (in minutes) required for 50% cleavage of the oligopeptide with enzymatically active free PSA and 50% cleavage occurred in less than 2 hours for those conjugates.
# [2] = target: T1, enzymatically active free PSA; assay: Recognition of oligopeptides by free PSA (HPLC cleavage assay); assay type: biochemical; conditions: for Time to 50% Substrate Cleavage by PSA: oligopeptide added to PSA at molar ratio 100 to 1, PSA digestion buffer; for Substrate cleavage by PSA at 3 HOURS: oligopeptide added to PSA at molar ratio 100 to 1
# Method: The oligopeptides prepared as described in Example 1 were individually dissolved in PSA digestion buffer (12 mM tris(hydroxymethyl)-aminomethane pH8.0, 25 mM NaCl, 0.5 mM CaCl2) and the solution added to PSA at a molar ration of 100 to 1. Alternatively, the PSA digestion buffer utilized is 50 mM tris(hydroxymethyl)-aminomethane pH7.4, 140 mM NaCl. The reaction is quenched after various reaction times by the addition of trifluoroacetic acid (TFA) to a final 1% (volume/volume). Alternatively the reaction is quenched with 10 mM ZnCl2. The quenched reaction was analyzed by HPLC on a reversed-phased C18 column using an aqueous 0.1% TFA/acetonitrile gradient. […] Oligopeptides containing free amine moieties (ie. comprising hArg, Orn, Lys and or 3PAL) were tested as TFA salts. All other oligopeptides were tested as neutral compounds.
# [3] = system: DuPRO cells; assay: In vitro cytotoxicity of peptidyl derivatives of doxorubicin, Alamar Blue assay, DuPRO; assay type: cell-based; conditions: 72 HRS, read-out: DuPRO Cell Kill in 72 HRS EC 50
# Method: (§1) The cytotoxicities of the cleaveable oligopeptide-doxorubicin conjugates, prepared as described in Examples 3 and 4, against a line of cells which is known to be killed by unmodified doxorubicin were assessed with an Alamar Blue assay. Specifically, cell cultures of LNCap prostate tumor cells (which express enzymatically active PSA) or DuPRO cells in 96 well plates was diluted with medium (Dulbeco's Minimum Essential Medium-α [MEM-α]) containing various concentrations of a given conjugate (final plate well volume of 200 μl). The cells were incubated for 3 days at 37° C., 20 μl of Alamar Blue is added to the assay well. The cells were further incubated and the assay plates were read on a EL-310 ELISA reader at the dual wavelengths of 570 and 600 nm at 4 and 7 hours after addition of Alamar Blue. Relative percentage viability at the various concentration of conjugate tested was then calculated versus control (no conjugate) cultures. If no salt is indicated, the free conjugate was tested.
# [4] = system: LNCap prostate tumor cells (which express enzymatically active PSA); assay: In vitro cytotoxicity of peptidyl derivatives of doxorubicin, Alamar Blue assay, LNCaP; assay type: cell-based; conditions: 72 HRS, read-out: LNCaP Cell Kill in 72 HRS EC 50
# Method: as §1
# T1 sequence (P07288 25-261): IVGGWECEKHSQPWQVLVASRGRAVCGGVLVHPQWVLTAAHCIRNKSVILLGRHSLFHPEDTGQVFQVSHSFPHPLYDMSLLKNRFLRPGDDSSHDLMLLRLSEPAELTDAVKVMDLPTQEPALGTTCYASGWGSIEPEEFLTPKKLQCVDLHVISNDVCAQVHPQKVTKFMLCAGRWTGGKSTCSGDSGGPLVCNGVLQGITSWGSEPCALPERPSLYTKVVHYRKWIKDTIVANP
compound,measurement,setting,value
Ac-(4-trans-L-Hyp)ASChgQ-SThi-DOX (3′),Solubility noted in the column Time to 50% Substrate Cleavage by PSA,[1],INSOLUBLE
Ac-PASChgQ-SL-acid (Ac-PAS[Chg]QSL-OH),Time to 50% Substrate Cleavage by PSA,[2],150 min
Ac-PSSChgQ-SV-acid,Time to 50% Substrate Cleavage by PSA,[2],120 min
[N-Ac-(4-trans-L-Hyp)]-Ala-Ser-Chg-Gln-Ser-Leu-OH (Ac-[Hyp]AS[Chg]QSL-OH) [Ac-(4-trans-L-Hyp)ASChgQ-SL-acid],Time to 50% Substrate Cleavage by PSA,[2],75 min
PEG(2)-(4-trans-L-Hyp)ASChgQ-SL-acid ({PEG(2)}-[Hyp]AS[Chg]QSL-OH),Substrate cleavage by PSA at 3 HOURS,[2],3 HOURS = 44%
Ac-(Dehydro-Pro)-ASChgQ-SL-acid,Substrate cleavage by PSA at 3 HOURS,[2],3 HOURS = 28%
"COc1cccc2c1C(=O)c1c(O)c3c(c(O)c1C2=O)C[C@@](O)(C(=O)CO)C[C@@H]3O[C@H]1C[C@H](NC(=O)[C@H](CC(C)C)NC(=O)[C@H](CO)NC(=O)[C@H](CCC(N)=O)NC(=O)[C@@H](NC(=O)[C@H](CO)NC(=O)[C@H](C)NC(=O)[C@@H]2C[C@@H](O)CN2C(C)=O)C2CCCCC2)[C@H](O)[C@H](C)O1 [Ac-(4-trans-L-Hyp)ASChgQ-SL-DOX (3′), [N-Ac-(4-trans-L-Hyp)]-Ala-Ser-Chg-Gln-Ser-Leu-Dox] (Ac-[Hyp]AS[Chg]QSL-{Doxorubicin(3'-N)})",Time to 50% Substrate Cleavage by PSA,[1],20 min
same,pEC50,[3],4.05
same,pEC50,[4],5.35
Ac-(4-trans-L-Hyp)ChgQ-SSSL-acid,Substrate cleavage by PSA at 3 HOURS,[2],3 HOURS = 0% n = 2
COc1cccc2c1C(=O)c1c(O)c3c(c(O)c1C2=O)C[C@@](O)(C(=O)CO)C[C@@H]3O[C@H]1C[C@H](NC(=O)C(CC(C)(C)C)NC(=O)[C@H](CO)NC(=O)[C@H](CCC(N)=O)NC(=O)[C@@H](NC(=O)[C@H](CO)NC(=O)[C@H](C)NC(=O)C2CC(O)CN2C(C)=O)C2CCCCC2)[C@H](O)[C@H](C)O1 (stereo partly shown) (Ac-[ξHyp]AS[Chg]QS[ξtBuAla]-{Doxorubicin(3'-N)}),Time to 50% Substrate Cleavage by PSA,[1],25 min
same,pEC50,[3],< 4.00
same,pEC50,[4],4.00
